Measurements as given in paper PMC8171077.

Tests used:
[1] = FITC-FA fluorescence microscopy of stable cell lines, 24 h; settings: glycan lost; control: FOLR1 WT stable cells
[2] = qRT-PCR and label-free quantitative proteomics of FOLR1; settings: glycan changed form; control: matched control stable cells

Protein | other: folate uptake [1] | expression_or_secretion [2]
folate receptor alpha (FOLR1): N69A (protein) parent chain: MAQRMTTQLLLLLVWVAVVGEAQTRIAWARTELLNVCMNAKHHKEKPGPEDKLHEQCRPWRKNACCSTNTSQEAHKDVSYLYRFNWNHCGEMAPACKRHFIQDTCLYECSPNLGPWIQQVDQSWRKERVLNVPLCKEDCEQWWEDCRTSYTCKSNWHKGWNWTSGFNKCAVGAACQPFHFYFPTPTVLCNEIWTHSYKVSNYSRGSGRCIQMWFDPAQGNPNEEVARFYAAAMSGAGPWAAWPFLLSLALMLLWLLS | decreases | 
folate receptor alpha (FOLR1): N161A (protein) parent chain: MAQRMTTQLLLLLVWVAVVGEAQTRIAWARTELLNVCMNAKHHKEKPGPEDKLHEQCRPWRKNACCSTNTSQEAHKDVSYLYRFNWNHCGEMAPACKRHFIQDTCLYECSPNLGPWIQQVDQSWRKERVLNVPLCKEDCEQWWEDCRTSYTCKSNWHKGWNWTSGFNKCAVGAACQPFHFYFPTPTVLCNEIWTHSYKVSNYSRGSGRCIQMWFDPAQGNPNEEVARFYAAAMSGAGPWAAWPFLLSLALMLLWLLS | decreases | 
folate receptor alpha (FOLR1): N201A (protein) parent chain: MAQRMTTQLLLLLVWVAVVGEAQTRIAWARTELLNVCMNAKHHKEKPGPEDKLHEQCRPWRKNACCSTNTSQEAHKDVSYLYRFNWNHCGEMAPACKRHFIQDTCLYECSPNLGPWIQQVDQSWRKERVLNVPLCKEDCEQWWEDCRTSYTCKSNWHKGWNWTSGFNKCAVGAACQPFHFYFPTPTVLCNEIWTHSYKVSNYSRGSGRCIQMWFDPAQGNPNEEVARFYAAAMSGAGPWAAWPFLLSLALMLLWLLS | decreases | 
folate receptor alpha (FOLR1): shFUT8 (protein) parent chain: MAQRMTTQLLLLLVWVAVVGEAQTRIAWARTELLNVCMNAKHHKEKPGPEDKLHEQCRPWRKNACCSTNTSQEAHKDVSYLYRFNWNHCGEMAPACKRHFIQDTCLYECSPNLGPWIQQVDQSWRKERVLNVPLCKEDCEQWWEDCRTSYTCKSNWHKGWNWTSGFNKCAVGAACQPFHFYFPTPTVLCNEIWTHSYKVSNYSRGSGRCIQMWFDPAQGNPNEEVARFYAAAMSGAGPWAAWPFLLSLALMLLWLLS |  | no change
folate receptor alpha (FOLR1): FUT8 overexpression (protein) parent chain: MAQRMTTQLLLLLVWVAVVGEAQTRIAWARTELLNVCMNAKHHKEKPGPEDKLHEQCRPWRKNACCSTNTSQEAHKDVSYLYRFNWNHCGEMAPACKRHFIQDTCLYECSPNLGPWIQQVDQSWRKERVLNVPLCKEDCEQWWEDCRTSYTCKSNWHKGWNWTSGFNKCAVGAACQPFHFYFPTPTVLCNEIWTHSYKVSNYSRGSGRCIQMWFDPAQGNPNEEVARFYAAAMSGAGPWAAWPFLLSLALMLLWLLS |  | no change
